Data set [1] deals with 1,5-AG dehydrogenase (Ver. 0). The data set is described as follows: Substrate specificity of parent strain-derived 1,5-AG dehydrogenase. The format is biochemical, Pseudomonas sp. NK-85001. Conditions: activity for 1,5-AG as 100%; Ver. 0, 40%-saturated ammonium sulfate precipitate fraction. Here is the method: (§1) The components other than the crude enzyme solution are mixed and kept at 37° C. for 10 minutes. Then, the crude enzyme solution is added to the reaction solution to initiate reaction. Decrease in absorbance at 600 nm for 1 minute with the temperature kept at 37° C. is determined.
A precipitate fraction of 40%-saturated ammonium sulfate was collected by centrifugation and dissolved in a 50 mM sodium phosphate buffer, pH 7.5.

The nature of data set [2]: Stability of thermostable 1,5-AG dehydrogenase at heat treatment temperature (rate of residual activity). The conditions noted are these: crude enzyme solution, 10 minutes; for Rate of residual activity after 10-minute treatment at 45° C.: water bath 45° C. In kind it is physicochemical. Here is the method:
(§2) The E. coli JM109 containing the gene encoding each thermostable 1,5-AG dehydrogenase obtained in the paragraphs to [4] of EXAMPLE 2 was transplanted to 10 mL of an LB liquid medium containing 50 μg/mL ampicillin and 0.1 mM IPTG and shake-cultured at 30° C. for 16 hours. 10 mL of the shake-culture solution was centrifuged at 10000 rpm for 5 minutes. The culture supernatant was removed, and the pellet was then washed twice with a 0.85% aqueous NaCl solution. These microbial cells were suspended in 1 mL of a 50 mM sodium phosphate buffer (pH 7.5) containing 0.25% Triton X-100. The microbial cells were disrupted using a bead impact-type cell disrupter MINI-BEAD BEATER (30 seconds×4, manufactured by Central Scientific Commerce, Inc.) while cooled in ice. After centrifugation at 15000 rpm for 10 minutes, the supernatant was used as a crude enzyme solution. When the crude enzyme solution was heat-treated, the treatment was performed for 10 minutes in a water bath of 45° C., 50° C., 55° C. or 60° C.
(§3) The enzymatic activity of the 1,5-AG dehydrogenase was calculated by measurement by the same approach as that described in the paragraph (J) of EXAMPLE 1.
(§4) A specific activity that represents the enzymatic activity of the 1,5-AG dehydrogenase per mg of the crude enzyme solution was calculated according to the following equation: Specific activity (U/mg)=enzymatic activity (U/mL)/protein concentration of crude enzyme solution (mg/mL). Moreover, the rate of residual activity was calculated according to the following equation: Rate of residual activity (%)=(specific activity of crude enzyme solution after heat treatment/specific activity of crude enzyme solution before heat treatment)×100.

Data set [3] can be described thus: 1,5-AG dehydrogenase activity determination of crude enzyme solution (L-sorbose, DCIP, 1-m-PMS, decrease in absorbance at 600 nm). In kind it is biochemical. As to the method:
The E. coli JM109 strains transformed with the pTrc-PS15DH vectors confirmed in the paragraph (I) to have the insert fragment were inoculated to 3 mL of an LB medium containing 100 μg/mL ampicillin and cultured at 28° C. for 14 hours. Of this culture solution, a 0.2 mL aliquot was inoculated to 10 mL of an LB medium (containing 100 μg/mL ampicillin). Approximately 3 hours later, the rise of OD600 of the culture solution to 0.4 to 0.7 was confirmed, and 1,5-AG dehydrogenase expression in E. coli was then induced by the addition of 0.1 M IPTG (final concentration: 0.1 mM) to the medium. This culture solution was further cultured overnight at 28° C. and centrifuged at 10000×g for 5 minutes to precipitate cells. The supernatant was removed, and the pellet was then washed twice with a 0.85% aqueous NaCl solution. Cells were precipitated by centrifugation. Then, the microbial cells were suspended in 1 mL of a 50 mM sodium phosphate buffer, pH 7.5. Triton X-100 was added thereto at a concentration of 0.25%, and the microbial cells were disrupted using a bead impact-type cell disrupter MINI-BEAD BEATER (30 seconds×4, manufactured by Central Scientific Commerce, Inc.) while cooled in ice. After centrifugation at 20000×g for 10 minutes, the supernatant was examined as a crude enzyme solution for its 1,5-AG dehydrogenase activity. The composition of the reaction solution is as described below. Since the 1,5-AG dehydrogenase also reacts with L-sorbose as its substrate, L-sorbose was used for convenience instead of 1,5-AG in the enzymatic activity determination.
Composition of Reaction Solution:
as §1
The enzymatic activity can be determined according to the following equation: Enzymatic activity (U/mL)=(Δ600/min×0.6 (mL)×dilution ratio of crude enzyme solution)/(16.3×0.01 (mL)).
as §2, §3, §4
The 1,5-AG dehydrogenase activity was determined based on the method described in EXAMPLE 1, and its specific activity was determined according to the equation described in EXAMPLE 3.

The mark [4] stands for this setting: crude enzyme solution, L-sorbose as substrate, 37° C.

Consider `OC[C@H]1OC[C@H](O)[C@@H](O)[C@@H]1O` [1,5-AG, 1,5-anhydroglucitol], for which the Relative activity in data set [1] is on record as 100%.
As to `OC[C@H]1O[C@H](O[C@H]2[C@H](O)[C@@H](O)C(O)O[C@@H]2CO)[C@H](O)[C@@H](O)[C@@H]1O` (mixture of isomers) [Maltose], the Relative activity in data set [1] came to 0.2%.
In the case of `O=C(CO)[C@@H](O)[C@H](O)[C@@H](O)CO` [L-sorbose], the Relative activity in data set [1] came to 54%.
With `O=C[C@H](O)[C@@H](O)[C@H](O)CO` [Xylose], the Relative activity in data set [1] is 0%.
With `O=C[C@H](O)[C@@H](O)[C@@H](O)[C@H](O)CO` [Galactose], the Relative activity in data set [1] came out at 0%.
`OC[C@@H](O)[C@H](O)[C@@H](O)CO` [Xylitol]: the Relative activity in data set [1] stood at 0%.

B1: Ver. 11.0: thermostable 1,5-AG dehydrogenase; SEQ ID NO: 1 having arginine at position 156 and valine at position 473 (protein)
chain: MEFAGQPDIVIIGTGIGGASIAAGLSASGADILILERGESLPDRPENRDQHAIFQRGFFRPKEFWYGTDGTPFNPGNYYYVGGNSKFYGAVLMRYRREDFEELAHLEGVSPAWPFAYDELEPWYCKAEELFQVRGELGDDPTEPYHSKPYSYPAIRDESPIADMRARLKKAGLHPASLPLGVDIERWLAKAKTPWDAHPNSDDGKMDAETCPLALALKHPNVGLETSARVTKLEAGPDGKTIVAVHYVKNGEALVLRPKLVILSAGAVQSAALLLRSGLANRSDQVGRNFMNHNASAVIGFDPRYRNDSVYQKTFGFNDYYLSDGAGGPPLGNVQLLGRVSGAILKSYMRQVPEWFLNRIARHTIDFYAMSEDLPSPESRVSVDGDRIILHWVRSNWKAHLMLVDKLKSALRAAGFPVVLSRAFDRRTPSHQCGTVRIGDNPATAPLDPYCRAYDHPNLYVVDASFLPTSAAVNPALTIAAQALRVADHLNREVLA
modifications: Protein expressed by mutated 1,5-anhydroglucitol dehydrogenase gene
For B1, the “Rate of residual activity after 10-minute treatment at 45° C.” value (shortened to “Rate of residual activity … at 45° C.”) in data set [2] worked out at 97.0%. Besides, in data set [2] (water bath 50° C.), the “Rate of residual activity after 10-minute treatment at 50° C.” value turned out to be 97.0%. For the same molecule, the “Rate of residual activity after 10-minute treatment at 55° C.” value in data set [2] (water bath 55° C.) stood at 81.0%. The molecule also yielded a Specific activity in data set [3] (setting [4]) of 3.4 U/mg.

B2: Ver. 3.1: thermostable 1,5-AG dehydrogenase, protein 18); net vs SEQ ID NO: 4: A37T, P50Q, L164M (protein)
chain: MEFGGQPDIVIIGSGIGGASIAAGLSASGADILILETGESLPDRPENRDQHAIFQRGFFRPKEFWYETDGTPFNPGNYYNVGGNSKFYGAVLVRYRREDFEELAHLEGVSPAWPFAYDELEPWYCKAEELFQVRGELGDDPTEPYHSKPYSYPAIRDESPIADMRARLKKAGLHPASLPLGVDIERWLAKAKTPWDAHPNSNDGKMDAETCPLALALKHPNVGLETSARVTKLETGPDGKTIVAVHYVKNGEALVLRPKLVILSAGAVQSAALLLRSGLANRSDQVGRNFMNHNASAVIGFDPRYRNDSVYQKTFGFNDYYLSDGAGGPPLGNVQLLGRVSGAILKSNMRQVPEWFLNRIAGHTIDFYAMSEDLPSPESRVSVDGDRIILHWVRSNWKAHLMLVDKLKSALRAAGFPVVLSRAFDRRTPSHQCGTVRIGDNPATAPLDPYCRAYDHPNLYVVDASFLPTSAAVNPALTIAAQALRVADHLNREVLA
modifications: Pseudomonas sp. NK-85001
Regarding B2, the “Rate of residual activity … at 45° C.” value in data set [2] is 54.0%. In addition, the Specific activity in data set [3] (setting [4]) turned out to be 1.2 U/mg.

B3: Ver. 3.0: thermostable 1,5-AG dehydrogenase, protein 19); net vs SEQ ID NO: 4: A37T, P50Q, G362R (protein)
chain: MEFGGQPDIVIIGSGIGGASIAAGLSASGADILILETGESLPDRPENRDQHAIFQRGFFRPKEFWYETDGTPFNPGNYYNVGGNSKFYGAVLVRYRREDFEELAHLEGVSPAWPFAYDELEPWYCKAEELFQVRGELGDDPTEPYHSKPYSYPAIRDESPIADLRARLKKAGLHPASLPLGVDIERWLAKAKTPWDAHPNSNDGKMDAETCPLALALKHPNVGLETSARVTKLETGPDGKTIVAVHYVKNGEALVLRPKLVILSAGAVQSAALLLRSGLANRSDQVGRNFMNHNASAVIGFDPRYRNDSVYQKTFGFNDYYLSDGAGGPPLGNVQLLGRVSGAILKSNMRQVPEWFLNRIARHTIDFYAMSEDLPSPESRVSVDGDRIILHWVRSNWKAHLMLVDKLKSALRAAGFPVVLSRAFDRRTPSHQCGTVRIGDNPATAPLDPYCRAYDHPNLYVVDASFLPTSAAVNPALTIAAQALRVADHLNREVLA
modifications: Pseudomonas sp. NK-85001
Take B3: the “Rate of residual activity … at 45° C.” value in data set [2] was 40.0%. In data set [3] (setting [4]), this molecule gave a Specific activity of 2.8 U/mg.

B4: Ver. 2.0: thermostable 1,5-AG dehydrogenase, SEQ ID NO: 22; net vs SEQ ID NO: 4: Q6H, A37T, P50Q (protein)
chain: MEFGGHPDIVIIGSGIGGASIAAGLSASGADILILETGESLPDRPENRDQHAIFQRGFFRPKEFWYETDGTPFNPGNYYNVGGNSKFYGAVLVRYRREDFEELAHLEGVSPAWPFAYDELEPWYCKAEELFQVRGELGDDPTEPYHSKPYSYPAIRDESPIADLRARLKKAGLHPASLPLGVDIERWLAKAKTPWDAHPNSNDGKMDAETCPLALALKHPNVGLETSARVTKLETGPDGKTIVAVHYVKNGEALVLRPKLVILSAGAVQSAALLLRSGLANRSDQVGRNFMNHNASAVIGFDPRYRNDSVYQKTFGFNDYYLSDGAGGPPLGNVQLLGRVSGAILKSNMRQVPEWFLNRIAGHTIDFYAMSEDLPSPESRVSVDGDRIILHWVRSNWKAHLMLVDKLKSALRAAGFPVVLSRAFDRRTPSHQCGTVRIGDNPATAPLDPYCRAYDHPNLYVVDASFLPTSAAVNPALTIAAQALRVADHLNREVLA
modifications: Mutated 1,5-anhydroglucitol dehydrogenase gene
For B4, the “Rate of residual activity … at 45° C.” value in data set [2] is recorded as 31.0%. Moreover, the Specific activity was 1.4 U/mg in data set [3] (setting [4]); 4.39 U/mg in data set [3] (purification step: CFE (cell-free extracts)); 13.8 U/mg in data set [3] (purification step: ammonium sulfate precipitation); 13.5 U/mg in data set [3] (purification step: desalting and concentration); 13.5 U/mg in data set [3] (purification step: weak anion-exchange chromatography (DEAE FF)).

For the origin of these results see patent US8574882B2, “Thermostable 1,5-anhydroglucitol dehydrogenase, and method for measurement of 1,5-anhydroglucitol by using the same” (Nippon Kayaku Kabushiki Kaisha, priority 2008, dated 2013).
